According to US20210221867A1 (Novo Nordisk, published 2021):
Positions of bridges follow the written chain, without caps; N, C: chain ends. Non-standard residues stand in square brackets, D forms with d. Nle = CCCC[C@H](N)C(=O)O

Tests used:
human MC1 receptor [1] = biological target: T1, human MC1 receptor (human, UniProt Q01726 1-317); test: cell-based or functional assay
human MC4 receptor [2] = biological target: T2, human MC4 receptor (human, UniProt P32245 1-332); test: cell-based or functional assay
human MC1 receptor [3] = biological target: T1, human MC1 receptor; test: SPA competition binding, displacement of 125I-NDP-α-MSH, BHK membranes with human MC1R
Protocol: (§1) The SPA Binding assay was performed in 96-well white opaque plates. Each well contained: 0.5 mg PVT-WGA SPA beads, MC1 receptor expressing membrane diluted to give approximately 10% specific tracer binding, 50.000 dpm ¹²⁵I-NDP-α-MSH and relevant dilutions of test compound. The final volume in each well was 200 μl. […] Plates were incubated overnight (22-24 hours) at room temperature before counting for 2 minutes per well, using a TopCount NXT scintillation counter. Displacement of radio ligand is measured as reduction in light emission from SPA beads, and IC₅₀ values are calculated by nonlinear regression analysis of sigmoidal dose-response curves in GraphPad Prism (GraphPad Software, La Jolla, Calif., USA).

human MC4 receptor [4] = biological target: T2, human MC4 receptor; test: SPA competition binding, displacement of 125I-NDP-α-MSH, BHK membranes with human MC4R
Protocol: as §1, with “MC4” for “MC1”

T2 sequence (P32245 whole entry): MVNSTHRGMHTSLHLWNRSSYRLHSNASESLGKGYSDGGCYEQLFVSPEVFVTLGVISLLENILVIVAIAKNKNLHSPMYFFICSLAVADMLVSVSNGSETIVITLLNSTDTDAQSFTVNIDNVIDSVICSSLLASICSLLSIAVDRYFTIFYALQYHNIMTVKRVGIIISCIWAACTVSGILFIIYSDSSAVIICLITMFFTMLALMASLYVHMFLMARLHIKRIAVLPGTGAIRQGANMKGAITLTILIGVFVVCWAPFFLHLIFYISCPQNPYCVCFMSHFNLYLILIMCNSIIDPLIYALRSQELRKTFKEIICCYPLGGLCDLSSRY
T1 sequence (Q01726 whole entry): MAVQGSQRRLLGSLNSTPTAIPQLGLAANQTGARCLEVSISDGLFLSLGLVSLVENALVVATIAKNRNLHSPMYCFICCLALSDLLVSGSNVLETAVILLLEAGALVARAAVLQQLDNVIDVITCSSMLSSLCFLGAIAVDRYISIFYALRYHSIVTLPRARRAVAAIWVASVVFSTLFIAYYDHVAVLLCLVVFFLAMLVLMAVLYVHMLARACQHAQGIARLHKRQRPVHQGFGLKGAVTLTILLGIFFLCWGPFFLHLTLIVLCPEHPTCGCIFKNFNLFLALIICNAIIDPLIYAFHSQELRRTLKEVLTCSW

MC1R cAMP EC50 (human MC1 receptor [1]): 172 nM
MC4R cAMP EC50 (human MC4 receptor [2]): 0.22 nM
IC50 (human MC1 receptor [3]): 39.7 nM
IC50 (human MC4 receptor [4]): 0.23 nM
B1: Ac-Arg-c[Cys-Pro-His-D-Phe-His-Trp-Cys]-Pro-Pro-D-Arg-Glu-Nle-D-Arg-D-Arg-NH2 (peptide)
peptide: Ac-RCPH[dF]HWCPP[dR]E[Nle][dR][dR]-NH2
modifications: disulfide 2-8
SMILES: CCCC[C@H](NC(=O)[C@H](CCC(=O)O)NC(=O)[C@@H](CCCNC(=N)N)NC(=O)[C@@H]1CCCN1C(=O)[C@@H]1CCCN1C(=O)[C@@H]1CSSC[C@H](NC(=O)[C@H](CCCNC(=N)N)NC(C)=O)C(=O)N2CCC[C@H]2C(=O)N[C@@H](Cc2c[nH]cn2)C(=O)N[C@H](Cc2ccccc2)C(=O)N[C@@H](Cc2c[nH]cn2)C(=O)N[C@@H](Cc2c[nH]c3ccccc23)C(=O)N1)C(=O)N[C@H](CCCNC(=N)N)C(=O)N[C@H](CCCNC(=N)N)C(N)=O
notes: Synthetic cyclic peptide; also called Chem. 5
